# How the values were obtained:
# [1] = molecular target: the molecule itself; assay: cross-linking; recombinant PRX3 incubated with indicated concentrations of thiostrepton (TS) for 30 min; reducing SDS-PAGE, immunoblot with anti-PRX3 antibody
# [2] = molecular target: the molecule itself; assay: cross-linking; in vitro PRX3 turnover: 100 μM PRX3, 5 μM E. coli TRX2, 0.5 μM E. coli TR, NADPH regenerating system (or TCEP), 0.2 mM TS or DMSO, 16-18 h at 37°C, successive additions of 100 μM H2O2; reducing SDS-PAGE, GelCode Blue stain
# [3] = molecular target: the molecule itself; assay: cross-linking; EE Mut cycled with and without TS as in the in vitro assay, treated with DTT, exchanged into 25 mM ammonium bicarbonate; intact mass by ESI-TOF MS
protein,measurement,setting,value
"Human recombinant PRX3 (peroxiredoxin 3), wild type, residues 62-256 (enzyme, UniProt P30048 62-256, looked up, peroxiredoxin 3 (PRX3), human, PRDX3 gene residues 62-256, codon optimized, in pET15b; also called rPRX3; WT PRX3; source: E. coli C41 (DE3), purified (nickel-NTA, Q-Sepharose FF, Superdex 200); not shown: His-tag, N-terminal, kept) APAVTQHAPYFKGTAVVNGEFKDLSLDDFKGKYLVLFFYPLDFTFVCPTEIVAFSDKANEFHDVNCEVVAVSVDSHFSHLAWINTPRKNGGLGHMNIALLSDLTKQISRDYGVLLEGSGLALRGLFIIDPNGVIKHLSVNDLPVGRSVEETLRLVKAFQYVETHGEVCPANWTPDSPTIKPSPAASKEYFQKVNQ",binding result,[1],binds
"Human recombinant PRX3 C127S, residues 62-256 (enzyme, UniProt P30048 62-256, looked up, peroxiredoxin 3 (PRX3), human, PRDX3 gene residues 62-256, non-catalytic cysteine replaced with serine; also called Cys127 mutant; source: E. coli C41 (DE3), purified (nickel-NTA, Q-Sepharose FF, Superdex 200); not shown: His-tag, N-terminal, kept) APAVTQHAPYFKGTAVVNGEFKDLSLDDFKGKYLVLFFYPLDFTFVCPTEIVAFSDKANEFHDVNSEVVAVSVDSHFSHLAWINTPRKNGGLGHMNIALLSDLTKQISRDYGVLLEGSGLALRGLFIIDPNGVIKHLSVNDLPVGRSVEETLRLVKAFQYVETHGEVCPANWTPDSPTIKPSPAASKEYFQKVNQ",binding result,[2],binds
"Engineered dimer of PRX3, S139E/A142E (EE Mut), residues 62-256 (enzyme, human, UniProt P30048 62-256, looked up, peroxiredoxin 3 (PRX3), human, PRDX3 gene residues 62-256, two charged residues introduced into the dimer-dimer interface; His-tag removed by digestion with biotinylated thrombin; Measured mass of the reduced monomer 21640.6 amu; also called EE mutant; dimeric variant of PRX3; source: E. coli C41 (DE3), purified (nickel-NTA, Q-Sepharose FF, Superdex 200); not shown: His-tag, N-terminal, cleaved) APAVTQHAPYFKGTAVVNGEFKDLSLDDFKGKYLVLFFYPLDFTFVCPTEIVAFSDKANEFHDVNCEVVAVSVDSHFEHLEWINTPRKNGGLGHMNIALLSDLTKQISRDYGVLLEGSGLALRGLFIIDPNGVIKHLSVNDLPVGRSVEETLRLVKAFQYVETHGEVCPANWTPDSPTIKPSPAASKEYFQKVNQ",stoichiometry N,[3],2

# Source: PMC4444329, “Disabling Mitochondrial Peroxide Metabolism via Combinatorial Targeting of Peroxiredoxin 3 as an Effective Therapeutic Approach for Malignant Mesothelioma” (PLoS ONE, 2015)
